According to patent US20130315910A1 (Xencor, published 2013):

T1: human FcγRIIb receptor protein (R&D Systems) (human, UniProt P31994 46-217)
T1 construct: Bought protein injected over captured antibody in Biacore; also called CD32b
T1 sequence (looked up): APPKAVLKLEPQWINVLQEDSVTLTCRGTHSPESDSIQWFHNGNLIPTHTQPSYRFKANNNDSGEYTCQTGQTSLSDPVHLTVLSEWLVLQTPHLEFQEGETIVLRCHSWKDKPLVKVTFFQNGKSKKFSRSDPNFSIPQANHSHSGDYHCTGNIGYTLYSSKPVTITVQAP

T2: human FcγRIIa (131R), His- and GST-tagged (human, UniProt P12318 34-217)
T2 construct: Expressed in HEK293T cells, purified by nickel chromatography; also called R131 FcγRIIa; not shown: 6xHis and GST tags of the pTT5 vector
T2 sequence (looked up): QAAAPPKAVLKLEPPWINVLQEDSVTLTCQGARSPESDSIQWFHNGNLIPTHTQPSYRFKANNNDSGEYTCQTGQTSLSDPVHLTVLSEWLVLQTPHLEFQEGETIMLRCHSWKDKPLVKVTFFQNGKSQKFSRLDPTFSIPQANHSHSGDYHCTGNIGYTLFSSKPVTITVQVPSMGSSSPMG

T3: mFcγRIIb (Mus musculus, UniProt P08101)
T3 construct: extracellular region, C-terminal His- and GST-tag; also called mouse FcγRII
T3 sequence (receptor extracellular region, looked up): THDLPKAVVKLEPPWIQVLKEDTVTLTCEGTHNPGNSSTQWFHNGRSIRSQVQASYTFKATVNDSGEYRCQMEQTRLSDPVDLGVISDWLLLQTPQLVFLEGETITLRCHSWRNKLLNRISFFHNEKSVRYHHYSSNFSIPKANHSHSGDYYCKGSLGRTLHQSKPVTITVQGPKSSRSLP

T4: cynoFcγRIIb (Macaca fascicularis, UniProt A0A140HDP4)
T4 construct: extracellular region, C-terminal His- and GST-tag; also called cynomolgus monkey FcγRIIb
T4 sequence (receptor extracellular region): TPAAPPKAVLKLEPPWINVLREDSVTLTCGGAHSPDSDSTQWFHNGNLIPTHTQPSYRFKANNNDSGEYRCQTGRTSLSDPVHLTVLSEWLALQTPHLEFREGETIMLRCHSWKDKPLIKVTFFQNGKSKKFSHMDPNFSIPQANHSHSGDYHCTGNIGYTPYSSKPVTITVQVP

T5: human FcγRIIa (131H), His- and GST-tagged (human, UniProt P12318 34-217)
T5 construct: also called H131 FcγRIIa; HIIa; not shown: 6xHis and GST tags of the pTT5 vector
T5 sequence (looked up): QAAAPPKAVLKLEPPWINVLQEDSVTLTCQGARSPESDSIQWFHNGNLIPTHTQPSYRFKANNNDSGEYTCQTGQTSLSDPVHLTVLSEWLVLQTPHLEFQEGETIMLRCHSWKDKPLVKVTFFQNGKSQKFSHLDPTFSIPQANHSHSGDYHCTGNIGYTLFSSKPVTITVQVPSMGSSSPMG

T6: mFcγRIV
T6 construct: also called mouse FcγRIV; not shown: C-terminal His and GST tags (named only on our card)
T6 chain: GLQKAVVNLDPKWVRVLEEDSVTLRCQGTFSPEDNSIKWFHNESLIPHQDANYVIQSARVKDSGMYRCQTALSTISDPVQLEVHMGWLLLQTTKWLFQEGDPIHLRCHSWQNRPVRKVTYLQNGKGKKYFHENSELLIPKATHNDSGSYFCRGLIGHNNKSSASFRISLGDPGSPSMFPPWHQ

T7: human FcγRIIb on cells (transfected HEK293T cells; primary human B cells) (human, UniProt P31994 43-310)
T7 construct: whole, on cells; also called CD32b
T7 sequence (looked up): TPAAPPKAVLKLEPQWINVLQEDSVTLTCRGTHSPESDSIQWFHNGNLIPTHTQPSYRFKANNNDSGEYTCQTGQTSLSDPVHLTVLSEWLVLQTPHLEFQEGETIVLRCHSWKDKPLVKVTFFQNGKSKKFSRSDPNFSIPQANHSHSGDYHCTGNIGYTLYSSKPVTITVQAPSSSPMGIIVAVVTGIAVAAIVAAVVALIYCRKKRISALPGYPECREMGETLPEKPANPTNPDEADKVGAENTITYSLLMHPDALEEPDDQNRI


Legend:
[1] = molecular target: T1, human FcγRIIb receptor protein (R&D …); test: SPR
[2] = molecular target: T2, human FcγRIIa (131R), His- and …; test: SPR
mFcγRIIb [3] = molecular target: T3, mFcγRIIb; test: SPR, Kd
Procedure: (§1) Variants were screened for receptor affinity using Biacore™ technology, also referred to as Biacore herein, a surface plasmon resonance (SPR) based technology for studying biomolecular interactions in real time. SPR measurements were performed using a Biacore 3000 instrument (Biacore, Piscataway, N.J.). A protein A/G (Pierce Biotechnology) CM5 biosensor chip (Biacore) was generated using a standard primary amine coupling protocol. All measurements were performed using HBS-EP buffer (10 mM HEPES pH 7.4, 0.15 M NaCl, 3 mM EDTA, 0.005% vol/vol surfactant P20, Biacore). Antibodies at 20 nM or 50 nM in HBS-EP buffer were immobilized on the protein A/G surface and FcγRs were injected. After each cycle, the surface was regenerated by injecting glycine buffer (10 mM, pH 1.5). Data were processed by zeroing time and response before the injection of FcγR and by subtracting appropriate nonspecific signals (response of reference channel and injection of running buffer). Kinetic analyses were performed by global fitting of binding data with a 1:1 Langmuir binding model using BIAevaluation software (Biacore).
(§2) Variant antibodies were tested for their affinity to mouse or cynologous monkey FcγRs using Biacore SPR as described above. Specifically, antibodies were first immobilized on a protein A/G chip to high density, and then followed by injections of the extracellular domain of the mouse or cynologous monkey FcγR of interest. Both association and dissociation phases were tracked in real time using the Biacore technology.

cynoFcγRIIb [4] = molecular target: T4, cynoFcγRIIb; test: SPR, Kd
Procedure: as §1, §2

[5] = molecular target: T1, human FcγRIIb receptor protein (R&D …); test: Biacore SPR, antibody captured on protein A/G chip, FcγR injected
[6] = molecular target: T5, human FcγRIIa (131H), His- and …; test: SPR
[7] = molecular target: T8, human FcγRI receptor protein (R&D Systems) (human, UniProt P12314 16-288); test: SPR
T8 construct: also called soluble FcγRI; solFcγRI
T8 sequence (P12314 16-288 limits assumed): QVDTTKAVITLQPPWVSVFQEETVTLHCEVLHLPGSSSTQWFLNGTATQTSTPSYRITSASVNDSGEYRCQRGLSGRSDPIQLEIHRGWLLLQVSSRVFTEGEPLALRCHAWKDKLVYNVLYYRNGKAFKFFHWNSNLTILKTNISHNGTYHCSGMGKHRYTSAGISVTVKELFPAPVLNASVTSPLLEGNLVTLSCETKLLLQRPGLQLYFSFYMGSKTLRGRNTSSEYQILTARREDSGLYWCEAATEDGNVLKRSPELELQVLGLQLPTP

[8] = molecular target: T9, human FcγRIIIa (158V), His- and GST-tagged (human, UniProt P08637 17-208); test: SPR
T9 construct: also called V158 FcγRIIIa; VIIIa; not shown: 6xHis and GST tags of the pTT5 vector
T9 sequence (P08637 17-208 F176V): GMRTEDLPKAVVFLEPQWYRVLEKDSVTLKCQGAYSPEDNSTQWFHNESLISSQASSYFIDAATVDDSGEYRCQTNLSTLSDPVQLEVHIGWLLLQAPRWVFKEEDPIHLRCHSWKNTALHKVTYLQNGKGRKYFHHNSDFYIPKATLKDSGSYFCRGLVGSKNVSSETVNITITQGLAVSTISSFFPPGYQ

mFcγRIIb [9] = molecular target: T3, mFcγRIIb; test: SPR
cynoFcγRIIIa [10] = molecular target: T10, cynoFcγRIIIa (Macaca fascicularis, UniProt Q8SPW2); test: SPR
T10 construct: extracellular region, C-terminal His- and GST-tag; also called cynomolgus monkey FcγRIIIa
T10 sequence (Q8SPW2 17-208): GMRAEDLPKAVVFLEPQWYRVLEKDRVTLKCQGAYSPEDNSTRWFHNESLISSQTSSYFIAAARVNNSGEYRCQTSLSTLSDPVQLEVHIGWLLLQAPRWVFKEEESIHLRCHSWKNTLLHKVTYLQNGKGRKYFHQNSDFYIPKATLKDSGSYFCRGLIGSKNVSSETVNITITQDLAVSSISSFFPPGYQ

mFcγRIV = molecular target: T6, mFcγRIV; test: SPR
cynoFcγRIIb [11] = molecular target: T4, cynoFcγRIIb; test: SPR
[12] = molecular target: T1, human FcγRIIb receptor protein (R&D …); test: Biacore SPR, Kd(native IgG1)/Kd(variant)
[13] = molecular target: T7, human FcγRIIb on cells (transfected …); test: flow cytometry on FcγRIIb-transfected 293T cells [top left panel]
Procedure: In order to validate the Biacore data and evaluate receptor binding of the variants on the cell surface, binding of select antibodies to cells expressing FcγRIIb was measured. […] HEK293T cells in DMEM with 10% FBS were transfected with human FcγRIIb cDNA in pCMV6 expression vector (Origene Technologies, Rockville, Md.), cultured for 3 days, harvested, washed twice in PBS, resuspended in PBS with 0.1% BSA (PBS/BSA), and aliquoted at 2×10^5 cells per well into 96-well microtiter plates. Fc variant antibodies were serially diluted in PBS/BSA then added to the cells and incubated with mixing for 1 h at room temperature. After extensive washing with PBS/BSA, phycoerythrin (PE)-labeled anti-human-Fab-specific goat F(ab′)2 fragment was added for detection. Cells were incubated for 30 min at room temperature, washed, and resuspended in PBS/BSA. Binding was evaluated using a FACSCanto II flow cytometer (BD Biosciences, San Jose, Calif.), and the mean fluorescence intensity (MFI) was plotted as a function of antibody concentration using Graph Pad Prism software (GraphPad Software, San Diego, Calif.) from which half-maximal binding (EC50) values were determined by sigmoidal dose response modeling.

cynoFcγRIIIa [14] = molecular target: T10, cynoFcγRIIIa; test: SPR, Kd
Procedure: as §1, §2
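Throughout, for Fold vs WT IgG1 (off-rate): fold improvement over WT IgG1 so higher means slower dissociation than WT.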

| Fold vs WT IgG1 [1] | Kd [1] | Fold vs WT IgG1 [2] | Kd [2] | Fold vs WT IgG1 [6] | Kd [6] | Fold vs WT IgG1 [7] | Kd [7] | Fold vs WT IgG1 [8] | Kd [8] | Fold vs WT IgG1 (off-rate) (mFcγRIIb [9]) | Fold vs WT IgG1 (off-rate) (cynoFcγRIIIa [10]) | Fold vs WT IgG1 (off-rate) (mFcγRIV) | Fold vs WT IgG1 (off-rate) (cynoFcγRIIb [11]) | Binder | also measured |
| --- | --- | --- | --- | --- | --- | --- | --- | --- | --- | --- | --- | --- | --- | --- | --- |
| 5.11 fold | 287 nM | 0.728 fold | 1180 nM | – | – | – | – | – | – | – | – | – | – | L234D/G236N/S267E (antibody, human IgG1, kappa, HuAM4G7 anti-CD19 IgG1 (m1) with these Fc substitutions, EU index; copies: 2 + 2) heavy: EVQLVESGGGLVKPGGSLKLSCAASGYTFTSYVMHWVRQAPGKGLEWIGYINPYNDGTKYNEKFQGRVTISSDKSISTAYMELSSLRSEDTAMYYCARGTYYYGTRVFDYWGQGTLVTVSSASTKGPSVFPLAPSSKSTSGGTAALGCLVKDYFPEPVTVSWNSGALTSGVHTFPAVLQSSGLYSLSSVVTVPSSSLGTQTYICNVNHKPSNTKVDKKVEPKSCDKTHTCPPCPAPEDLNGPSVFLFPPKPKDTLMISRTPEVTCVVVDVEHEDPEVKFNWYVDGVEVHNAKTKPREEQYNSTYRVVSVLTVLHQDWLNGKEYKCKVSNKALPAPIEKTISKAKGQPREPQVYTLPPSREEMTKNQVSLTCLVKGFYPSDIAVEWESNGQPENNYKTTPPVLDSDGSFFLYSKLTVDKSRWQQGNVFSCSVMHEALHNHYTQKSLSLSPGK light: DIVMTQSPATLSLSPGERATLSCRSSKSLQNVNGNTYLYWFQQKPGQSPQLLIYRMSNLNSGVPDRFSGSGSGTEFTLTISSLEPEDFAVYYCMQHLEYPITFGAGTKLEIKRTVAAPSVFIFPPSDEQLKSGTASVVCLLNNFYPREAKVQWKVDNALQSGNSQESVTEQDSKDSTYSLSSTLTLSKADYEKHKVYACEVTHQGLSSPVTKSFNRGEC | binding result (mFcγRIIb [3]): no binding; binding result (cynoFcγRIIb [4]): no binding |
| – | – | 4.29 fold | 200 nM | 1.22 fold | 530 nM | 1.15 fold | 0.287 nM | 0.952 fold | 201 nM | 3.02 fold | 1.27 fold | 1.53 fold | 1.05 fold | anti-CD19 antibody HuAM4G7 IgG1 S267A (antibody, Positions in EU numbering; copies: 2 + 2) heavy: not shown light: DIVMTQSPATLSLSPGERATLSCRSSKSLQNVNGNTYLYWFQQKPGQSPQLLIYRMSNLNSGVPDRFSGSGSGTEFTLTISSLEPEDFAVYYCMQHLEYPITFGAGTKLEIKRTVAAPSVFIFPPSDEQLKSGTASVVCLLNNFYPREAKVQWKVDNALQSGNSQESVTEQDSKDSTYSLSSTLTLSKADYEKHKVYACEVTHQGLSSPVTKSFNRGEC | Kd [5]: 408 nM; fold affinity relative to native IgG1 [12]: 3.6 fold |
| 4.45 fold | 330 nM | 8.99 fold | 95.5 nM | 0.93 fold | 695 nM | 2.11 fold | 0.156 nM | 1.51 fold | 127 nM | 1.95 fold | 1.27 fold | 1.27 fold | 1.03 fold | S267D (antibody, human IgG1, kappa, HuAM4G7 anti-CD19 IgG1 (m1) with this Fc substitution, EU index; copies: 2 + 2) heavy: not shown light: DIVMTQSPATLSLSPGERATLSCRSSKSLQNVNGNTYLYWFQQKPGQSPQLLIYRMSNLNSGVPDRFSGSGSGTEFTLTISSLEPEDFAVYYCMQHLEYPITFGAGTKLEIKRTVAAPSVFIFPPSDEQLKSGTASVVCLLNNFYPREAKVQWKVDNALQSGNSQESVTEQDSKDSTYSLSSTLTLSKADYEKHKVYACEVTHQGLSSPVTKSFNRGEC | EC50 (read off the curve) [13]: ~0.03 µg/mL |
| 43.1 fold | 34.1 nM | 122 fold | 7.06 nM | 1.34 fold | 481 nM | 0.224 fold | 1.47 nM | – | – | 7.92 fold | – | – | 1.93 fold | S267E/L328Y (antibody, human IgG1, kappa, HuAM4G7 anti-CD19 IgG1 (m1) with these Fc substitutions, EU index; copies: 2 + 2) heavy: not shown light: DIVMTQSPATLSLSPGERATLSCRSSKSLQNVNGNTYLYWFQQKPGQSPQLLIYRMSNLNSGVPDRFSGSGSGTEFTLTISSLEPEDFAVYYCMQHLEYPITFGAGTKLEIKRTVAAPSVFIFPPSDEQLKSGTASVVCLLNNFYPREAKVQWKVDNALQSGNSQESVTEQDSKDSTYSLSSTLTLSKADYEKHKVYACEVTHQGLSSPVTKSFNRGEC | binding result [8]: no binding; binding result (cynoFcγRIIIa [14]): no binding |
